Measurements as given in the DeepSol protein solubility set.

Assay: soluble on expression in E. coli; label from the status in PepcDB or PDB records

In the case of “GPGSMSKSRRDVNKVQIGYHRAENTETVSSPHTYAYSSGKSAPSTTKPDRPTVSNIRIASAVAGLPPSRFAANASVKREKNDEESESPTAAASSVSSSLLHGAASEARTTVDGFPWSTRRVERMSFEMQNVSPPIANLLRRVLTTEVPTLAFDRVLIEENDSPVLDELLSHRLGLVPVAGPVMKMHYITESNQASFSNLDPSRVLLFELDATGAKDAAVTPVYSGQLQWVPLPGQDKTAGAVAVACQAGREECAGAAGATDHSADEDDDAVFLVHPDILLTKLGPGQRIKLKAIAVKGFGAVHAKWSPVSACYYEMKTSVELCERLTGSAAEALIKSCPAGVFGYEGGQRGAAATVVAPEKCTLCRECLRSEDKGAEAAANKGDRVRVQKDKTHVLFHIESVGQLHPAQILRFGLRLFAERCRALAEMVQSTEVHVVDASAKSLEL”, the “soluble on expression in E. coli” value is reported as “not soluble”.
For “MGSDKIHHHHHHMPEHLDFTLFQPKGRLASIVQGVWSTSVAIHSSNNIKRWLHSDACSGFLFNLSEPIQLNDLSISTGGVLLPVSKQAQTITLPPGAVVVGVRFHPAMSFAILGNIYQQATQIKKSETNILSLQTLGNQLEQAKGHYARIVVFYRWLNTMLLTIDNIPAPLMSALKALEDKKSPGELSNHVLLSQRQIERHFQKWLNMTPKYYQRISRVKNALKVLKLHPETALADLALSIGFTDQAHMTREFKYIARITPKHYAQKVIDDKSNALSIIKPKVG”, the “soluble on expression in E. coli” value was “not soluble”.
For “MPVNNENLTSVLDARPFELSEEQKSPLFKANLLAELVHHYQCNEMYRKFCQKNKFDPLVFDGEVADIPPIPVHIFKAIGHKLSSVSDDTIKAKLQSSATSGVPSTILLDKVTARRQTRAMARVMQEVLGPKRRPFCIMDIDPTSPNATNLGARIAAVKGYLNFASTSKYFIDADSPSAPLEFLEQKFVEHLNSLASEEPLIIFGFTFVLYHTVFKTLKDKGISFQLPKGSQVIHIGGWKKLESEKVDKITFNRDIASVLGISPDDVVDIYGFTEQMGLNYPDCKAGWKHIHAYSDVIIRDESNLEVCGPGKVGLLEFVSPLPHSYPGNVVLTDDLGVIEESLCECGKAGKRFKVIGRAKKAEVRGCGDVMSEKLTKKPSYKPLSQQEERLTIYHSPIFLEHHHHHH”, the “soluble on expression in E. coli” value was “not soluble”.
For “MAHTTGENLFTMKRVLRNLEADHDALREALADGRRMRDLLPYGDYINRYRNLTRDPMVVAIHKQFHESGLGGLTIDESMFPLSLRFEDDDVTLVFRRPEGFRHGTNEESSQRPLIERRSRIVLFWKYAEPGTDALKRISLQMFDNEGPLEEATMLSEKIPLLTKPESLTTAMFIPTHADEPRFVFGS”, the “soluble on expression in E. coli” value was “not soluble”.
For “GSHMMKVEKEIKTNQDIDVVMTIFSDPAFTIPQIFPGIASIKCIEPEIFEAEGKFLAFSYKVKGRVYKGVDEVRIIYDSDRGNGILYIRKKDNNTLQIILEHDNKLTAFLGKPYVSSNLDRLAENIDEIIRLERIKRKI”, the “soluble on expression in E. coli” value was “soluble”.
For “MRGSHHHHHHGIRMRARYPAFSVNYDSSFGGYSIHDYLGQWASTFGDVNHTNGNVTDANSGGFYGGSLSGSQYAISSTANQVTAFVAGGNLTYTLFNEPAHTLYGQLDSLSFGDGLSGGDTSPYSIQVPDVSFGGLNLSSLQAQGHDGVVHQVVYGLMSGDTGALETALNGILDDYGLSVNSTFDQVAAATAVGVQHADSPELLAA”, the “soluble on expression in E. coli” value was “soluble”.
In the case of “MSLRPLAIIGPTGAGKSQLALDVAARLGARVSVEIVNADAMQLYRGMDIGTAKLPVSERRGIPHHQLDVLDVTETATVARYQRAAAADIEAIAARGAVPVVVGGSMLYVQSLLDDWSFPATDPSVRARWERRLAEVGVDRLHAELARRDPAAAAAILPTDARRTVRALEVVELTGQPFAASAPRIGAPRWDTVIVGLDCQTTILDERLARRTDLMFDQGLVEEVRTLLRNGLREGVTASRALGYAQVIAALDAGAGADMMRAAREQTYLGTRRYVRRQRSWFRRDHRVHWLDAGVASSPDRARLVDDAVRLWRHVTEGHHHHHH”, the “soluble on expression in E. coli” value is reported as “soluble”.
For “MAQFTEDEKIMRRLEQRFNKGVVKYRLIEDGDKILIGLSGGKDSLALLELLARRSRILKPKFTVIAVHVGMTNIPYQSDLEYLKGYSEDLGVPFVHYETFFDPSTDTRKSPCFLCSWNRRKALFTVAKEQGCNKIALGHHMDDILETLLMNITFQGAFSTMPPKLVMRKFEMTIIRPMCLVHEADLIEMARIRGFRKQIKDCPYESLSNRSNMKEVLYSLEKMNPEARYSLWKCMTNIQEELLPGMNEHDL”, the “soluble on expression in E. coli” value was “not soluble”.
In the case of “MIDCAIIGGGPAGLSAGLYATRGGVKNAVLFEKGMPGGQITGSSEIENYPGVKEVVSGLDFMQPWQEQCFRFGLKHEMTAVQRVSKKDSHFVILAEDGKTFEAKSVIIATGGSPKRTGIKGESEYWGKGVSTCATCDGFFYKNKEVAVLGGGDTAVEEAIYLANICKKVYLIHRRDGFRCAPITLEHAKNNDKIEFLTPYVVEEIKGDASGVSSLSIKNTATNEKRELVVPGFFIFVGYDVNNAVLKQEDNSMLCKCDEYGSIVVDFSMKTNVQGLFAAGDIRIFAPKQVVCAASDGATAALSVISYLEHH”, the “soluble on expression in E. coli” value is reported as “soluble”.
In the case of “METCDLLAFGAHPDDVEIGMGGTIAKYVRRGYRIVICDLTQAELSSNGTVDERQREAAEAARRLGVSERFNLGLPDRGLYVEEEAIRQIAAVIRRCRPRLVFAPYWEDRHPDHGRCARLVEEAVFSAGIRRYGAGELGDAHRVRAVYYYMINAFCRPHFLIDISETIDDKLDSLRAYESQFQKRPGSVDTPLTNGYIEMIESRERWFGQQIGAAYAEGFLTKTPIHLSNLFEEER”, the “soluble on expression in E. coli” value is reported as “not soluble”.
In the case of “GAMDENDEGVRGTCEDASLCKRFAVSIGYWHDPYIQHFVRLSKERKAPEINRGYFARVHGVSQLIKAFLRKTECHCQIVNLGAGMDTTFWRLKDEDLLPSKYFEVDFPMIVTRKLHSIKCKPPLSSPILELHSEDTLQMDGHILDSKRYAVIGADLRDLSELEEKLKKCNMNTQLPTLLIAECVLVYMTPEQSANLLKWAANSFERAMFINYEQVNEGKSLESQKERLLSNGWETASAVDMMELYNRLPRAEVSRIESLEFLDEMELLEQLMRHYCLCWATKGGNELGLKEITY”, the “soluble on expression in E. coli” value is reported as “soluble”.
With “MRKEGYKSGFVAIIGRPNVGKSTFLNRVIGQKIAIMSDKPQTTRNKIQGVYTDDDAQIIFIDTPGVHKPKHKLGDFMMKVALNALREVDLILFMVNAEEGFGRGEAFIIERLKEVDTPVFLVINKIDRVHPDELLPLIDRYKDLYPFAEIVPISALEGNNVDRLLEQIKERLPEGPQYYPPDQITDHPEQFIIAELIREKALHLTREEVPHSIAVVVERIERREGSPTVYISAVIVVERDSQKGIIIGKQGRMLKEIGQRARADIEALLGSRVFLELWVKVQKDWRNRLSQLRDFGFREDEY” the “soluble on expression in E. coli” value was “soluble”.
With “MSVSLLRGRTVRRVLSVLVVAGLLGAGATGCSNDAGAKTENTVDASPTPTNTPTDGEGDSEGAEEPVEDTPAEPEQRPVPEEPEAMKTGDKAGAIAAATFFVEVIEYDATQPDSRFFSKYAYEECGWCNEYKKTHEQQANSNFSLINTNINLEDIKTASFAGEGSVLWSVPINANVSSHYKSKKDDEVVETEHTLTGNMLVGYRNGQWLLVEGDLLVK” the “soluble on expression in E. coli” value was “not soluble”.
With “ASHHLRMHFKTLPAGESLGSLGLWVWGDVDQPSKDWPNGAITMTKAKKDDYGYYLDVPLAAKHRQQVSYLINNKAGENLSKDQHISLLTPKMNEVWIDENYHAHAYRPLKEGYLRINYHNQSGHYDNLAVWTFKDVKTPTTDWPNGLDLSHKGHYGAYVDVPLKEGANEIGFLILDKSKTGDAIKVQPKDYLFKELDNHTQVFVKDTDPKVYNNPYYID” the “soluble on expression in E. coli” value was “soluble”.
With “ASQPLIQDPVLIEYINHLGNSLVKNAQGVNYAFEFFLINNNELNAFAFFGGHVGIHSGLITTADTESELASVIAHEISHVTQRHLARRLESQSQTQGLTMAAMLSSVLITLVNPTVGIAALSASMAVTQQASINYTRGNEKEADRVGIALLASSNYDPQGAASFFSKMSTKYRYASKPPAMLLTHPLPESRIADARQRALNYPARPLPPSLGFELTKARLKSRYQGEAKSNISFFKLQLEKKRYAIKAAAQYGLALSYFENKQTSEALQLLEMLEKNDKDNLFYVDALTDVYIANNQANKAIKMLERLNLFMPNNQVVSLNYANALLSVKEYDLAAQILQDFLLVNPGNFIAYDILTTLYRTQEKTGLMHMSKAEVYALLGAYPKAVDELQTSYAFLDEQPLMQK” the “soluble on expression in E. coli” value was “not soluble”.
